Results reported in article PMC2895429.

Target: cardiac ryanodine receptor (RyR2) in permeabilized rat ventricular myocytes (rat (endogenous in ventricular myocytes)) (UniProt B0LPN4)
Chain of UniProt B0LPN4 (B0LPN4 whole entry): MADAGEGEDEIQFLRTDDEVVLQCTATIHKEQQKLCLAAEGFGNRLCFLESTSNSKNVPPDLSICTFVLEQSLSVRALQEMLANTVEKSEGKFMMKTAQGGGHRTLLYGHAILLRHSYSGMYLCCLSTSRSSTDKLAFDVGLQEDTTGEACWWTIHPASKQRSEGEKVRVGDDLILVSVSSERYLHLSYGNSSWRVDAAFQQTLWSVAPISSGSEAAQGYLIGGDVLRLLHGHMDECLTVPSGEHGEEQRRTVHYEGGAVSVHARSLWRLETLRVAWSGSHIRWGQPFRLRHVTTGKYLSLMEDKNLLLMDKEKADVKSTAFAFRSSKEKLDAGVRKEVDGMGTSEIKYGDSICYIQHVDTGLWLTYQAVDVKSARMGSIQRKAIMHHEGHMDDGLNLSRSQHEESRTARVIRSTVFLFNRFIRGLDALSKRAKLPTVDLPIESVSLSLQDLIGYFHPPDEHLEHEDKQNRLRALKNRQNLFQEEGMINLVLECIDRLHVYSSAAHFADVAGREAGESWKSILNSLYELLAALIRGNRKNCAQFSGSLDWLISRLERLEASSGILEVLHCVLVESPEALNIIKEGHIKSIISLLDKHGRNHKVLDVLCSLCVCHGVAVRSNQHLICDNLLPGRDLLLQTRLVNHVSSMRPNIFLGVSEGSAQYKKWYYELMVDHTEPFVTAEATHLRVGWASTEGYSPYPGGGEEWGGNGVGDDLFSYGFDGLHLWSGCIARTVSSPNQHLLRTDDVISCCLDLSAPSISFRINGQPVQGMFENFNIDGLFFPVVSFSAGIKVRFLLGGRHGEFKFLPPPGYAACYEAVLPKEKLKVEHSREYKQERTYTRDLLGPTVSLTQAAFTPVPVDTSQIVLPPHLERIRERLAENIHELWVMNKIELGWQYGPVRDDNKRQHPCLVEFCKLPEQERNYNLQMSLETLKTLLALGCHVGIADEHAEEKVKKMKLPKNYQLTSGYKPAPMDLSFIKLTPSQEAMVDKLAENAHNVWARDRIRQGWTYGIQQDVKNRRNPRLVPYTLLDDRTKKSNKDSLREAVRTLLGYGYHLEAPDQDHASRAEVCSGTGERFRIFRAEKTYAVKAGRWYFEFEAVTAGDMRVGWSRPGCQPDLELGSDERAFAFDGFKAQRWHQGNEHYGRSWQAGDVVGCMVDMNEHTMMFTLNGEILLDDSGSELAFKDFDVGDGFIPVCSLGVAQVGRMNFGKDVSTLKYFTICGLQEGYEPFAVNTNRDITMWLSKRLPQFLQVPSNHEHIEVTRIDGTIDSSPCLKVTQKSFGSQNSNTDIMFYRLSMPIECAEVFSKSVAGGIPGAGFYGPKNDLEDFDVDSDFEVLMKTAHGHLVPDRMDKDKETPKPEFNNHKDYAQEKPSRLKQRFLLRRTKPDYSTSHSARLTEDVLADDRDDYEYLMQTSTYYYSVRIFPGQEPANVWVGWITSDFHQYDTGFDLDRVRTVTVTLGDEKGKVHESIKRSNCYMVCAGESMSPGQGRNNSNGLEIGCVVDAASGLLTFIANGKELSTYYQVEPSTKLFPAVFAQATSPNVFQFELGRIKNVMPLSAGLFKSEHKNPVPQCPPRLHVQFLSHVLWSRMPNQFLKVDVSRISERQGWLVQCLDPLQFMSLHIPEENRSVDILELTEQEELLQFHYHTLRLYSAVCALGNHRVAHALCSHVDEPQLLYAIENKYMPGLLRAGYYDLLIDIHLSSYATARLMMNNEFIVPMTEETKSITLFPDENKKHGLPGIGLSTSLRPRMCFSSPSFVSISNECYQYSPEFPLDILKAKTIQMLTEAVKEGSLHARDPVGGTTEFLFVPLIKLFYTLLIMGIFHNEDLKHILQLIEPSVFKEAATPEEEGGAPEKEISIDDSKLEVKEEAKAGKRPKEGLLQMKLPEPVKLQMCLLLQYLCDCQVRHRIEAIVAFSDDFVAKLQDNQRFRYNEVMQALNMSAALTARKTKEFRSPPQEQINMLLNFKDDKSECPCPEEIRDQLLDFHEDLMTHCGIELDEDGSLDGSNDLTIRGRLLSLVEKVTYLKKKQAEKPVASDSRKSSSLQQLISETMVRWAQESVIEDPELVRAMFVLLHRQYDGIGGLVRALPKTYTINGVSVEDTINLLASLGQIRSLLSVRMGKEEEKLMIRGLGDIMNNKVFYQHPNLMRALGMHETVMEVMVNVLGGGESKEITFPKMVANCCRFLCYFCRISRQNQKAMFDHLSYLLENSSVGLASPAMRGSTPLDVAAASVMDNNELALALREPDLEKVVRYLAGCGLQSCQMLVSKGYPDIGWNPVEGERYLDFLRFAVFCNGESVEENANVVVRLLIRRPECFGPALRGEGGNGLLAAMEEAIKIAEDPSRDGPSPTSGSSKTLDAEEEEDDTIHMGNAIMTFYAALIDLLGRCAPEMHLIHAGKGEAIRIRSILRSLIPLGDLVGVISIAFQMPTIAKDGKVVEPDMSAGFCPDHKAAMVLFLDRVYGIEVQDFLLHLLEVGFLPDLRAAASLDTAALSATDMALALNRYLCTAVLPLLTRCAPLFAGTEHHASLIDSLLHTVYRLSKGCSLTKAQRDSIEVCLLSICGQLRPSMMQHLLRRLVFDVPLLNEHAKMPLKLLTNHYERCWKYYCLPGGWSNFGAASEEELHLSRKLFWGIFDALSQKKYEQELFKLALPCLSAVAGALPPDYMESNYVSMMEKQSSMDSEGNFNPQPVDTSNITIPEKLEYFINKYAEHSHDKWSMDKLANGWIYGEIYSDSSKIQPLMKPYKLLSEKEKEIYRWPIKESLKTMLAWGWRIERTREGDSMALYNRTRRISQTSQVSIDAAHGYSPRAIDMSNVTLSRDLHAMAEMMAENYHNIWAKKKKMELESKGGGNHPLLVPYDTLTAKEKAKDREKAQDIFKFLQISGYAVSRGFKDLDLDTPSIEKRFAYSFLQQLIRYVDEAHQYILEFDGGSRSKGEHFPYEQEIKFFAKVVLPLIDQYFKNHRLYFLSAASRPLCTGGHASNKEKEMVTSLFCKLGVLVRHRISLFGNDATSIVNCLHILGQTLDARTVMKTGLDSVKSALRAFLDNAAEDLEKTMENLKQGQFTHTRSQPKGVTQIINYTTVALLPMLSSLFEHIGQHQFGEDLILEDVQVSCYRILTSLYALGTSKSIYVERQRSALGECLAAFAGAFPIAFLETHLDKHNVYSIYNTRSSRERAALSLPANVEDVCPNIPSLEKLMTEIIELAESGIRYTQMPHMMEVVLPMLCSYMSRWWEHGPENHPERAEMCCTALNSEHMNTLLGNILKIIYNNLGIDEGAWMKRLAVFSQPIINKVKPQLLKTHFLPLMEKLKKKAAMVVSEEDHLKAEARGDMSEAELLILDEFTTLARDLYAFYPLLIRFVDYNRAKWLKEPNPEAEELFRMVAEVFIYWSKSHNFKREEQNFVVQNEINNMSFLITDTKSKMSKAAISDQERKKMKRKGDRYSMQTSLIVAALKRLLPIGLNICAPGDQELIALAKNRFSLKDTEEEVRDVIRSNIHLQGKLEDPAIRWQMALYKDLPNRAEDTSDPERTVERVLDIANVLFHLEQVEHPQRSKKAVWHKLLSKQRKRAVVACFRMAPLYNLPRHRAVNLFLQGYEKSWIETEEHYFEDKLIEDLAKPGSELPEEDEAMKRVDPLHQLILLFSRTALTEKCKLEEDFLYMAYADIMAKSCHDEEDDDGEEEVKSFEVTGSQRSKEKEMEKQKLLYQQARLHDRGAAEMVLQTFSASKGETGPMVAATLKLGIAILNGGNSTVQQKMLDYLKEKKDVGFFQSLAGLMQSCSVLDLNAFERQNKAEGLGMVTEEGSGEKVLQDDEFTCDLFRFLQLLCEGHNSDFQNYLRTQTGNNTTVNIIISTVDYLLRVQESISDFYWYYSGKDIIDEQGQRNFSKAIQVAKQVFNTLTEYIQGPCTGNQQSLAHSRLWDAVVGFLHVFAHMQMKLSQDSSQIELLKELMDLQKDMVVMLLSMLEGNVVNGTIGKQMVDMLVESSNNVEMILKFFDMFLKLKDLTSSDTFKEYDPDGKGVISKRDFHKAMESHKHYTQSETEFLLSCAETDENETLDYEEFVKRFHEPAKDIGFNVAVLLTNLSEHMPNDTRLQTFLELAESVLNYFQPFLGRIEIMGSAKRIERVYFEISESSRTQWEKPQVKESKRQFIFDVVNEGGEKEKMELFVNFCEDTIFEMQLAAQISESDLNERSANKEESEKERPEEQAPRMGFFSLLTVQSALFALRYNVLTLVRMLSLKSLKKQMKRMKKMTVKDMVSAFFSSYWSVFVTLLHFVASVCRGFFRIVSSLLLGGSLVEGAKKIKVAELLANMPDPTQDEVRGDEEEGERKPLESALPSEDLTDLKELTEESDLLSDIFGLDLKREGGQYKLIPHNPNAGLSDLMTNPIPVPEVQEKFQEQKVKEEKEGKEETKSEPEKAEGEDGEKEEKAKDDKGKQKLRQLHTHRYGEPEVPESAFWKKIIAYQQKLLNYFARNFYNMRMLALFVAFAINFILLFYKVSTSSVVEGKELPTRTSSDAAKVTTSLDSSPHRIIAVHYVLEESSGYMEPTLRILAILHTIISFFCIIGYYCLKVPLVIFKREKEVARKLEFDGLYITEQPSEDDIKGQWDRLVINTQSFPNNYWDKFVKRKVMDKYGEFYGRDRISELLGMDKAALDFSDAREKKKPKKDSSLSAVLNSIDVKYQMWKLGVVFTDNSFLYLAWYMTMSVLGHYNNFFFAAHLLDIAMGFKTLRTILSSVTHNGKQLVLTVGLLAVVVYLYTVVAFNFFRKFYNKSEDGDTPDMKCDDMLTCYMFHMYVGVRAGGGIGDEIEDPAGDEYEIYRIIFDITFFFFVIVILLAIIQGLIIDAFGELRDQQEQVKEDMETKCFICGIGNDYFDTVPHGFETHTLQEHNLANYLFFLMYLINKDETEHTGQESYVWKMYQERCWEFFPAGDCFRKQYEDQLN

non-fluorescent wild type FKBP12.6 (from UniProt P68106 1-108) (natural protein)
decrease in Ca spark amplitude in permeabilized rat myocytes: 15%
decrease in resting Ca spark frequency (CaSpF) in permeabilized rat myocytes: 24%
